Measurements taken from article PMC6015732.

Tests used:
Experiment in all cases: SPR
[1] = biological target: RG801 (Fc domain of glycosylated clone 801 constructed with the Fab arms of Rituxan) (human)
[2] = biological target: RA801 (Fc domain of aglycosylated clone 801 constructed with the Fab arms of Rituxan) (human)
[3] = biological target: RG802 (Rituxan clone 802, glycosylated) (human)
[4] = biological target: IgG1 (wild-type glycosylated IgG1) (human) [IgG part: P01857]

Kd [1] [µM] | Kd [2] [µM] | Kd [3] [µM] | Kd [4] [µM] | Substance
0.283 | 0.959 | 0.289 | 0.623 | monomeric human FcRn–β2-microglobulin (from UniProt P55899 24-365; P61769 21-119) (complex)
0.648 | – | – | – | human FcγRI (monomeric, soluble) (from UniProt P12314 16-292) (receptor)
